B1: LINE1-full (parent)
chain: UACGUAGGUGGUUUUCCCCUGAUAGUGCUAAGGGGGCCUGGAAGUUUGGACUGGGCAGAGCUCAACACAGCGUGGCAAAGUGGCUGUGGCUAGACUGCCUCUCUGGAUUCCUCGUCACUCAGCAGGGCAUCUCUGAGAGAAAUGCC

Variants of: B1
Assay: self-cleavage, relative activity (ratio to wild type); higher = more cleavage; in vitro, sequencing; the parent is a self-cleaving ribozyme

Row | Variant | self-cleavage
1 | UACGUAGGUGGUUUUCCCCUGAUAGUGCUAAGGGGGCCUGGAAGUUUGGACUGGGCAGAGCUCAACACAGCGUGCCUAAGUGGCUGUGGCUAGACUGCCUCUCUGGAUUCCUCGUCACUCAGCAGGGCAUCUCUGAGAGAAAUGCC [G75C A77U] | 0.75
2 | UACGUAGGUGGUUUUCCCCUGAUAGUGCUAAGGGGGCCUGGAAGUUUGGACUGGGCAGAGCUCAACACAGCGUGCCGAAGUGGCUGUGGCUAGACUGCCUCUCUGGAUUCCUCGUCACUCAGCAGGGCAUCUCUGAGAGAAAUGCC [G75C A77G] | 0.8
3 | UACGUAGGUGGUUUUCCCCUGAUAGUGCUAAGGGGGCCUGGAAGUUUGGACUGGGCAGAGCUCAACACAGCGUUGCAAAGUGGCUGUGGCUAGACUGCCUCUCUGGGUUCCUCGUCACUCAGCAGGGCAUCUCUGAGAGAAAUGCC [G74U A107G] | 0.51
4 | UACGUAGGUGGUUUUCCCCUGAUAGUGCUAAGGGGGCCUGGAAGUUUGGACUGGGCAGAGCUCAACACAGCGUUGCAAAGUGGCUGUGGCUAGACUGCCUCUCUGGAUUCCUCAUCACUCAGCAGGGCAUCUCUGAGAGAAAUGCC [G74U G114A] | 1.21
5 | UACGUAGGUGGUUUUCCCCUGAUAGUGCUAAGGGGGCCUGGAAGUUUGGACUGGGCAGAGCUCAACACAGCGUGUCAAAGUGGCUGUGGUUAGACUGCCUCUCUGGAUUCCUCGUCACUCAGCAGGGCAUCUCUGAGAGAAAUGCC [G75U C90U] | 0.03
6 | UACGUAGGUGGUUUUCCCCUGAUAGUGCUAAGGGGGCCUGGAAGUUUGGACUGGGCAGAGCUCAACACAGCGUGACAAAGUGGCUGUGGCUAGACUGCCUCUCAGGAUUCCUCGUCACUCAGCAGGGCAUCUCUGAGAGAAAUGCC [G75A U104A] | 0.87
7 | UACGUAGGUGGUUUUCCCCUGAUAGUGCUAAGGGGGCCUGGAAGUUUGGACUGGGCAGAGCUCAACACAGCGUGACAAAGUGGCUGUGGCUAGACUGCCUCUCCGGAUUCCUCGUCACUCAGCAGGGCAUCUCUGAGAGAAAUGCC [G75A U104C] | 1.43
8 | UACGUAGGUGGUUUUCCCCUGAUAGUGCUAAGGGGGCCUGGAAGUUUGGACUGGGCAGAGCUCAACACAGCGUGACAAAGUGACUGUGGCUAGACUGCCUCUCUGGAUUCCUCGUCACUCAGCAGGGCAUCUCUGAGAGAAAUGCC [G75A G83A] | 0.76
9 | UACGUAGGUGGUUUUCCCCUGAUAGUGCUAAGGGGGCCUGGAAGUUUGGACUGGGCAGAGCUCAACACAGCGUGACAAAGUGGCUGUGGCUAGACUGCCUCUCUGGAUUCCUCGUCACUCAGCAGGGCAUCACUGAGAGAAAUGCC [G75A U132A] | 1.15
10 | UACGUAGGUGGUUUUCCCCUGAUAGUGCUAAGGGGGCCUGGAAGUUUGGACUGGGCAGAGCUCAACACAGCGUUGCAAAGUGGCUGUGGCUAGACUGCCUCUCUGGAUUCCUCGUCACUCAGCAGGGCACCUCUGAGAGAAAUGCC [G74U U130C] | 1.64
11 | UACGUAGGUGGUUUUCCCCUGAUAGUGCUAAGGGGGCCUGGAAGUUUGGACUGGGCAGAGCUCAACACAGCGUUGCAAAGUGGCUGUGGCUGGACUGCCUCUCUGGAUUCCUCGUCACUCAGCAGGGCAUCUCUGAGAGAAAUGCC [G74U A92G] | 0.06
12 | UACGUAGGUGGUUUUCCCCUGAUAGUGCUAAGGGGGCCUGGAAGUUUGGACUGGGCAGAGCUCAACACAGCGUGACAAAGUGGCUGUGGCUAGACUGCCUCUCUGGAUACCUCGUCACUCAGCAGGGCAUCUCUGAGAGAAAUGCC [G75A U109A] | 0.99
13 | UACGUAGGUGGUUUUCCCCUGAUAGUGCUAAGGGGGCCUGGAAGUUUGGACUGGGCAGAGCUCAACACAGCGUGACAAAGUGGCUGUGGCUAGACUGCCUCUCUGGAUCCCUCGUCACUCAGCAGGGCAUCUCUGAGAGAAAUGCC [G75A U109C] | 1.1
14 | UACGUAGGUGGUUUUCCCCUGAUAGUGCUAAGGGGGCCUGGAAGUUUGGACUGGGCAGAGCUCAACACAGCGUGCCAAAGUGGCUGUGGCUAGACUGCCUCUCUGGAUUCCUCGUCACUCAGCAGGGCAUCUCUGAGAGAAGUGCC [G75C A142G] | 0.85
15 | UACGUAGGUGGUUUUCCCCUGAUAGUGCUAAGGGGGCCUGGAAGUUUGGACUGGGCAGAGCUCAACACAGCGUGACAAAGUGGCUGUGGCUAGACUGCCUCUCUGGAUUCCUCGUCACUCAGCAGGGCAUCUCAGAGAGAAAUGCC [G75A U134A] | 1
16 | UACGUAGGUGGUUUUCCCCUGAUAGUGCUAAGGGGGCCUGGAAGUUUGGACUGGGCAGAGCUCAACACAGCGUGUCAAAGUGGCUGUGGCUAGACUGCCUCUCUGGAUUCCUCGUCACUCAGCAGGGCAUCUCUGAGAGAAUUGCC [G75U A142U] | 0.84
17 | UACGUAGGUGGUUUUCCCCUGAUAGUGCUAAGGGGGCCUGGAAGUUUGGACUGGGCAGAGCUCAACACAGCGUGCCAAAGUGGCUGUGGCUAGACUGCCUCUCUGGAUUCCUCGUCACUCAGCAGGGCAUCUCCGAGAGAAAUGCC [G75C U134C] | 0.58
18 | UACGUAGGUGGUUUUCCCCUGAUAGUGCUAAGGGGGCCUGGAAGUUUGGACUGGGCAGAGCUCAACACAGCGUGACAAAGUGGCUGUGGCUAGACUGCCUCUCUGGAUUCCUCGUCACUCAGCAGGGCAUCUCUGAGAGGAAUGCC [G75A A140G] | 0.88
19 | UACGUAGGUGGUUUUCCCCUGAUAGUGCUAAGGGGGCCUGGAAGUUUGGACUGGGCAGAGCUCAACACAGCGUGACAAAGUGGCUGUGGCUAGACUGCCUCUCUGGAUUCCUCGUCACUCAGCAGGGCAUCUCUGGGAGAAAUGCC [G75A A136G] | 1.35
20 | UACGUAGGUGGUUUUCCCCUGAUAGUGCUAAGGGGGCCUGGAAGUUUGGACUGGGCAGAGCUCAACACAGCGUGACAAAGUGGCUGUGGCUAGACUGCCUCACUGGAUUCCUCGUCACUCAGCAGGGCAUCUCUGAGAGAAAUGCC [G75A U102A] | 1.36

Row | Variant | self-cleavage
21 | UACGUAGGUGGUUUUCCCCUGAUAGUGCUAAGGGGGCCUGGAAGUUUGGACUGGGCAGAGCUCAACACAGCGUGACAAAGUGGCUGUGGCUAGACUGCCUCUCUGGAUUCCUCGUCACUCAGCAGAGCAUCUCUGAGAGAAAUGCC [G75A G126A] | 0.87
22 | UACGUAGGUGGUUUUCCCCUGAUAGUGCUAAGGGGGCCUGGAAGUUUGGACUGGGCAGAGCUCAACACAGCGUGACAGAGUGGCUGUGGCUAGACUGCCUCUCUGGAUUCCUCGUCACUCAGCAGGGCAUCUCUGAGAGAAAUGCC [G75A A78G] | 0.7
23 | UACGUAGGUGGUUUUCCCCUGAUAGUGCUAAGGGGGCCUGGAAGUUUGGACUGGGCAGAGCUCAACACAGCGUGACAAAGUGGCUGCGGCUAGACUGCCUCUCUGGAUUCCUCGUCACUCAGCAGGGCAUCUCUGAGAGAAAUGCC [G75A U87C] | 0.12
24 | UACGUAGGUGGUUUUCCCCUGAUAGUGCUAAGGGGGCCUGGAAGUUUGGACUGGGCAGAGCUCAACACAGCGUUGCAAAGUGGCUGUGGCUAGACUGCCUCUCUGGAUUCCUCGUCACUCAGCAGGGCAUCUCUGAGAGAAGUGCC [G74U A142G] | 1.63
25 | UACGUAGGUGGUUUUCCCCUGAUAGUGCUAAGGGGGCCUGGAAGUUUGGACUGGGCAGAGCUCAACACAGCGUUGCAAAGUGGCUGUGGCUAGACUGCCUCUCUGGAUUCCUCGUCACUCAGCAGGGCAUCUCCGAGAGAAAUGCC [G74U U134C] | 1.88
26 | UACGUAGGUGGUUUUCCCCUGAUAGUGCUAAGGGGGCCUGGAAGUUUGGACUGGGCAGAGCUCAACACAGCGUUGCAAAGUGGCUGUGGCUAGACUGCCUCUCUGGAUUCCUCGUCACUCAGCAGGGCAUCUCUGAGAGGAAUGCC [G74U A140G] | 1.99
27 | UACGUAGGUGGUUUUCCCCUGAUAGUGCUAAGGGGGCCUGGAAGUUUGGACUGGGCAGAGCUCAACACAGCGUGACAAAGUGGCUGUGGCUAGACUGCCUCUCUGGAUUCCUCGUCUCUCAGCAGGGCAUCUCUGAGAGAAAUGCC [G75A A117U] | 1.53
28 | UACGUAGGUGGUUUUCCCCUGAUAGUGCUAAGGGGGCCUGGAAGUUUGGACUGGGCAGAGCUCAACACAGCGUGACAAAGUGGCUGUGGCUAGACUGCCUCUCUGGAUUCCUCGUCACUCAGCGGGGCAUCUCUGAGAGAAAUGCC [G75A A124G] | 0.72
29 | UACGUAGGUGGUUUUCCCCUGAUAGUGCUAAGGGGGCCUGGAAGUUUGGACUGGGCAGAGCUCAACACAGCGUGACAAAGUGGCUCUGGCUAGACUGCCUCUCUGGAUUCCUCGUCACUCAGCAGGGCAUCUCUGAGAGAAAUGCC [G75A G86C] | 0.07
30 | UACGUAGGUGGUUUUCCCCUGAUAGUGCUAAGGGGGCCUGGAAGUUUGGACUGGGCAGAGCUCAACACAGCGUUGCAAAGUGGCUGUGGCAAGACUGCCUCUCUGGAUUCCUCGUCACUCAGCAGGGCAUCUCUGAGAGAAAUGCC [G74U U91A] | 0.57
31 | UACGUAGGUGGUUUUCCCCUGAUAGUGCUAAGGGGGCCUGGAAGUUUGGACUGGGCAGAGCUCAACACAGCGUUGCAAAGUGGCUGUGGCCAGACUGCCUCUCUGGAUUCCUCGUCACUCAGCAGGGCAUCUCUGAGAGAAAUGCC [G74U U91C] | 0.59
32 | UACGUAGGUGGUUUUCCCCUGAUAGUGCUAAGGGGGCCUGGAAGUUUGGACUGGGCAGAGCUCAACACAGCGUGCCAAAGUGGCUGUGGCUAGACUGCCUCUCUGGACUCCUCGUCACUCAGCAGGGCAUCUCUGAGAGAAAUGCC [G75C U108C] | 0.77
33 | UACGUAGGUGGUUUUCCCCUGAUAGUGCUAAGGGGGCCUGGAAGUUUGGACUGGGCAGAGCUCAACACAGCGUGACAAAGUGGCUGUGGCUAGACUGCCUCUCUGGAUUCCUCGACACUCAGCAGGGCAUCUCUGAGAGAAAUGCC [G75A U115A] | 1.12
34 | UACGUAGGUGGUUUUCCCCUGAUAGUGCUAAGGGGGCCUGGAAGUUUGGACUGGGCAGAGCUCAACACAGCGUGACAAAGUGGCUGUGGCUAGACUGCCUCUCUGGAUUCCUCGUCACUCAGCAGGGCACCUCUGAGAGAAAUGCC [G75A U130C] | 0.95
35 | UACGUAGGUGGUUUUCCCCUGAUAGUGCUAAGGGGGCCUGGAAGUUUGGACUGGGCAGAGCUCAACACAGCGUUGCAAAGUGGCUGUGGCUAGACUGCCUCCCUGGAUUCCUCGUCACUCAGCAGGGCAUCUCUGAGAGAAAUGCC [G74U U102C] | 1.42
36 | UACGUAGGUGGUUUUCCCCUGAUAGUGCUAAGGGGGCCUGGAAGUUUGGACUGGGCAGAGCUCAACACAGCGUGUCAAAGUGGCUGUGGCUAGACUGCCUCUCUGGAUUCCUCGUCACUCAGCAGGGCAUCUCUGAGAGAAAUGCC [G75U] | 0.62
37 | UACGUAGGUGGUUUUCCCCUGAUAGUGCUAAGGGGGCCUGGAAGUUUGGACUGGGCAGAGCUCAACACAGCGUGACAAAGUGGCUGUGGCUAGACUGCCUCUCUGGAUUCCUCGUCACUCAGCAGGGCAUCUCUGAGAGAAAUGCC [G75A] | 1.11
38 | UACGUAGGUGGUUUUCCCCUGAUAGUGCUAAGGGGGCCUGGAAGUUUGGACUGGGCAGAGCUCAACACAGCGUGCCAAAGUGGCUGUGGCUAGACUGCCUCUCUGGAUUCCUCGUCACUCAGCAGGGCAUCUCUGAGAGAAAUGCC [G75C] | 0.6
39 | UACGUAGGUGGUUUUCCCCUGAUAGUGCUAAGGGGGCCUGGAAGUUUGGACUGGGCAGAGCUCAACACAGCGUUGCAAAGUGGCUGUGGCUAGACUGCCUCUCUGGAUUCCUCGUCACUCUGCAGGGCAUCUCUGAGAGAAAUGCC [G74U A121U] | 1.02

Source: the RNAGym collection of RNA variant scans (doi:10.7554/elife.90254)
